Measured values: paper PMC10540216, “Activity Guided Azide-methyllysine Photo-trapping for Substrate Profiling of Lysine Demethylases” (Journal of the American Chemical Society, 2023)

B1: DDX3X_HUMAN (protein, UniProt O00571 2-662, looked up)
ATP-dependent RNA helicase …: SHVAVENALGLDQQFAGLDLNSSDNQSGGSTASKGRYIPPHLRNREATKGFYDKDSSGWSSSKDKDAYSSFGSRSDSRGKSSFFSDRGSGSRGRFDDRGRSDYDGIGSRGDRSGFGKFERGGNSRWCDKSDEDDWSKPLPPSERLEQELFSGGNTGINFEKYDDIPVEATGNNCPPHIESFSDVEMGEIIMGNIELTRYTRPTPVQKHAIPIIKEKRDLMACAQTGSGKTAAFLLPILSQIYSDGPGEALRAMKENGRYGRRKQYPISLVLAPTRELAVQIYEEARKFSYRSRVRPCVVYGGADIGQQIRDLERGCHLLVATPGRLVDMMERGKIGLDFCKYLVLDEADRMLDMGFEPQIRRIVEQDTMPPKGVRHTMMFSATFPKEIQMLARDFLDEYIFLAVGRVGSTSENITQKVVWVEESDKRSFLLDLLNATGKDSLTLVFVETKKGADSLEDFLYHEGYACTSIHGDRSQRDREEALHQFRSGKSPILVATAVAARGLDISNVKHVINFDLPSDIEEYVHRIGRTGRVGNLGLATSFFNERNINITKDLLDLLVEAKQEVPSWLENMAYEHHYKGSSRGRSKSSRFSGGFGARDYRQSSGASSSSFSSSRASSSRSGGGGHGSSRGFGGGGYGGFYNSDGYGGNYNSQGVDWWGN
B2: SYDM_HUMAN (protein, UniProt Q6PI48 48-645, looked up)
Aspartate--tRNA ligase, …: VVRTNTCGELRSSHLGQEVTLCGWIQYRRQNTFLVLRDFDGLVQVIIPQDESAASVKKILCEAPVESVVQVSGTVISRPAGQENPKMPTGEIEIKVKTAELLNACKKLPFEIKNFVKKTEALRLQYRYLDLRSFQMQYNLRLRSQMVMKMREYLCNLHGFVDIETPTLFKRTPGGAKEFLVPSREPGKFYSLPQSPQQFKQLLMVGGLDRYFQVARCYRDEGSRPDRQPEFTQIDIEMSFVDQTGIQSLIEGLLQYSWPNDKDPVVVPFPTMTFAEVLATYGTDKPDTRFGMKIIDISDVFRNTEIGFLQDALSKPHGTVKAICIPEGAKYLKRKDIESIRNFAADHFNQEILPVFLNANRNWNSPVANFIMESQRLELIRLMETQEEDVVLLTAGEHNKACSLLGKLRLECADLLETRGVVLRDPTLFSFLWVVDFPLFLPKEENPRELESAHHPFTAPHPSDIHLLYTEPKKARSQHYDLVLNGNEIGGGSIRIHNAELQRYILATLLKEDVKMLSHLLQALDYGAPPHGGIALGLDRLICLVTGSPSIRDVIAFPKSFRGHDLMSNTPDSVPPEELKPYHIRVSKPTDSKAERAH
B3: CX057_HUMAN (protein, UniProt Q6NSI4 1-855, looked up)
RPA-related protein RADX: MSGESGQPEAGPSHAGLDWPNPERNRAGVPGGVIRRAGSQGPRSWIQKVLEQIMDSPRQCVTPSEVVPVTVLAVQRYLLEDEPRDTVPKPPLYCYDVTISDGVYQEKCYLDPSLNSLVYQNILKVGIQMRISRVSCLYNEKRIGQGILCIDNVHCGETSDSISLETPFRNRAHQEKPERPLRGGKSHYLALWNNEDPYGDIWLTDKQPEEHNFSDTKIISLSHLEMTWTNRRNFPALLVRILHKSKLRYYGKPDKKMIEPYQTFLEVADSSGTVSVIMWNALCPEWYKSLRVGLVLLLQDYSVKKSYPFRIQPVPVDPQIKLISTMEICLNLRDPPTNIIIIPEKQVKPEWRLPKLNHRFTTRSELDDMPENCICDVIGLLVFVGRVQRSKKKENREDFWSYRWIHIADGTSEQPFIVELFSTSQPEIFENIYPMAYFVCTQLKVVRNDNQVPKLLYLTTTNESGVFITGHRGQPYTYDAKVKNFIQWIRTKSDSGEQKNMVIGGYYPYPPVPETFSKYSSSIKVESLLTAISEVRKEIEDLQYREQKRIAIQGIITAIKYIPHSSATESASASETLRNANRPSTSQAARVEIQERNGKRHQDDEPVNSQYFQTTSTNLSLSNKIRILQGPHANPVAVPQPGASVQTKGIKPGMPSIFNRRANINANLQGKARKTISDRWESQLWREKKFGLIDHLHYSRVYPESIPRKFMFEHRKFLSDQYNSQPAKYVPPEGRPPKLDDFKSARSLGHFEVTILGLNHEIAIDVAFLPMYCPEDIRTSQIDTLLTSMNYSCAYPQDTTGNDRLPGPRAVAGDIIKAATELDRVHIVGILDICNLGNNKVEVYLHKIYSPENTS
B4: CALD1_HUMAN (protein, UniProt Q05682 1-793, looked up)
Caldesmon: MDDFERRRELRRQKREEMRLEAERIAYQRNDDDEEEAARERRRRARQERLRQKQEEESLGQVTDQVEVNAQNSVPDEEAKTTTTNTQVEGDDEAAFLERLARREERRQKRLQEALERQKEFDPTITDASLSLPSRRMQNDTAENETTEKEEKSESRQERYEIEETETVTKSYQKNDWRDAEENKKEDKEKEEEEEEKPKRGSIGENQVEVMVEEKTTESQEETVVMSLKNGQISSEEPKQEEEREQGSDEISHHEKMEEEDKERAEAERARLEAEERERIKAEQDKKIADERARIEAEEKAAAQERERREAEERERMREEEKRAAEERQRIKEEEKRAAEERQRIKEEEKRAAEERQRIKEEEKRAAEERQRARAEEEEKAKVEEQKRNKQLEEKKHAMQETKIKGEKVEQKIEGKWVNEKKAQEDKLQTAVLKKQGEEKGTKVQAKREKLQEDKPTFKKEEIKDEKIKKDKEPKEEVKSFMDRKKGFTEVKSQNGEFMTHKLKHTENTFSRPGGRASVDTKEAEGAPQVEAGKRLEELRRRRGETESEEFEKLKQKQQEAALELEELKKKREERRKVLEEEEQRRKQEEADRKLREEEEKRRLKEEIERRRAEAAEKRQKMPEDGLSDDKKPFKCFTPKGSSLKIEERAEFLNKSVQKSSGVKSTHQAAIVSKIDSRLEQYTSAIEGTKSAKPTKPAASDLPVPAEGVRNIKSMWEKGNVFSSPTAAGTPNKETAGLKVGVSSRINEWLTKTPDGNKSPAPKPSDLRPGDVSSKRNLWEKQSVDKVTSPTKV
B5: ACON_HUMAN (protein, UniProt Q99798 28-780, looked up)
Aconitate hydratase, …: QRAKVAMSHFEPNEYIHYDLLEKNINIVRKRLNRPLTLSEKIVYGHLDDPASQEIERGKSYLRLRPDRVAMQDATAQMAMLQFISSGLSKVAVPSTIHCDHLIEAQVGGEKDLRRAKDINQEVYNFLATAGAKYGVGFWKPGSGIIHQIILENYAYPGVLLIGTDSHTPNGGGLGGICIGVGGADAVDVMAGIPWELKCPKVIGVKLTGSLSGWSSPKDVILKVAGILTVKGGTGAIVEYHGPGVDSISCTGMATICNMGAEIGATTSVFPYNHRMKKYLSKTGREDIANLADEFKDHLVPDPGCHYDQLIEINLSELKPHINGPFTPDLAHPVAEVGKVAEKEGWPLDIRVGLIGSCTNSSYEDMGRSAAVAKQALAHGLKCKSQFTITPGSEQIRATIERDGYAQILRDLGGIVLANACGPCIGQWDRKDIKKGEKNTIVTSYNRNFTGRNDANPETHAFVTSPEIVTALAIAGTLKFNPETDYLTGTDGKKFRLEAPDADELPKGEFDPGQDTYQHPPKDSSGQHVDVSPTSQRLQLLEPFDKWDGKDLEDLQILIKVKGKCTTDHISAAGPWLKFRGHLDNISNNLLIGAINIENGKANSVRNAVTQEFGPVPDTARYYKKHGIRWVVIGDENYGEGSSREHAALEPRHLGGRAIITKSFARIHETNLKKQGLLPLTFADPADYNKIHPVDKLTIQGLKDFTPGKPLKCIIKHPNGTQETILLNHTFNETQIEWFRAGSALNRMKELQQ
B6: TOP1_HUMAN (protein, UniProt P11387 2-765, looked up)
DNA topoisomerase 1: SGDHLHNDSQIEADFRLNDSHKHKDKHKDREHRHKEHKKEKDREKSKHSNSEHKDSEKKHKEKEKTKHKDGSSEKHKDKHKDRDKEKRKEEKVRASGDAKIKKEKENGFSSPPQIKDEPEDDGYFVPPKEDIKPLKRPRDEDDADYKPKKIKTEDTKKEKKRKLEEEEDGKLKKPKNKDKDKKVPEPDNKKKKPKKEEEQKWKWWEEERYPEGIKWKFLEHKGPVFAPPYEPLPENVKFYYDGKVMKLSPKAEEVATFFAKMLDHEYTTKEIFRKNFFKDWRKEMTNEEKNIITNLSKCDFTQMSQYFKAQTEARKQMSKEEKLKIKEENEKLLKEYGFCIMDNHKERIANFKIEPPGLFRGRGNHPKMGMLKRRIMPEDIIINCSKDAKVPSPPPGHKWKEVRHDNKVTWLVSWTENIQGSIKYIMLNPSSRIKGEKDWQKYETARRLKKCVDKIRNQYREDWKSKEMKVRQRAVALYFIDKLALRAGNEKEEGETADTVGCCSLRVEHINLHPELDGQEYVVEFDFLGKDSIRYYNKVPVEKRVFKNLQLFMENKQPEDDLFDRLNTGILNKHLQDLMEGLTAKVFRTYNASITLQQQLKELTAPDENIPAKILSYNRANRAVAILCNHQRAPPKTFEKSMMNLQTKIDAKKEQLADARRDLKSAKADAKVMKDAKTKKVVESKKKAVQRLEEQLMKLEVQATDREENKQIALGTSKLNYLDPRITVAWCKKWGVPIEKIYNKTQREKFAWAIDMADEDYEF
B7: SND1_HUMAN (protein, UniProt Q7KZF4 2-910, looked up)
Staphylococcal nuclease …: ASSAQSGGSSGGPAVPTVQRGIIKMVLSGCAIIVRGQPRGGPPPERQINLSNIRAGNLARRAAATQPDAKDTPDEPWAFPAREFLRKKLIGKEVCFTIENKTPQGREYGMIYLGKDTNGENIAESLVAEGLATRREGMRANNPEQNRLSECEEQAKAAKKGMWSEGNGSHTIRDLKYTIENPRHFVDSHHQKPVNAIIEHVRDGSVVRALLLPDYYLVTVMLSGIKCPTFRREADGSETPEPFAAEAKFFTESRLLQRDVQIILESCHNQNILGTILHPNGNITELLLKEGFARCVDWSIAVYTRGAEKLRAAERFAKERRLRIWRDYVAPTANLDQKDKQFVAKVMQVLNADAIVVKLNSGDYKTIHLSSIRPPRLEGENTQDKNKKLRPLYDIPYMFEAREFLRKKLIGKKVNVTVDYIRPASPATETVPAFSERTCATVTIGGINIAEALVSKGLATVIRYRQDDDQRSSHYDELLAAEARAIKNGKGLHSKKEVPIHRVADISGDTQKAKQFLPFLQRAGRSEAVVEYVFSGSRLKLYLPKETCLITFLLAGIECPRGARNLPGLVQEGEPFSEEATLFTKELVLQREVEVEVESMDKAGNFIGWLHIDGANLSVLLVEHALSKVHFTAERSSYYKSLLSAEEAAKQKKEKVWAHYEEQPVEEVMPVLEEKERSASYKPVFVTEITDDLHFYVQDVETGTQLEKLMENMRNDIASHPPVEGSYAPRRGEFCIAKFVDGEWYRARVEKVESPAKIHVFYIDYGNREVLPSTRLGTLSPAFSTRVLPAQATEYAFAFIQVPQDDDARTDAVDSVVRDIQNTQCLLNVEHLSAGCPHVTLQFADSKGDVGLGLVKEGLVMVEVRKEKQFQKVITEYLNAQESAKSARLNLWRYGDFRADDADEFGYSR

Test system: KDM4A-I71AzF
Assay: CASI: photo-crosslinking with HEK293T cell extracts, StrepTactin enrichment and LC-MS/MS proteomics;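 note: lysates from HEK293T cells pretreated with a KDM4 inhibitor to raise proteome methylation, affinity-purified after ±UV, gel-resolved, trypsin-digested, with exclusive unique peptides per protein averaged per condition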
Assay type: binding, human
Settings: sheet "Final results but with 0.01"

| Molecule | Fold change (+UV/-UV) |
| --- | --- |
| B1 | 0.7778 |
| B2 | 1.2 |
| B3 | 0 |
| B4 | 1.5 |
| B5 | 0.4 |
| B6 | 0 |
| B7 | 1.5 |
